This experiment deals with T1, recombinant CD45RO-Fc protein (Catalog # 10642-CD, R&D systems) (UniProt P08575-4 26-416).
T1 sequence (looked up): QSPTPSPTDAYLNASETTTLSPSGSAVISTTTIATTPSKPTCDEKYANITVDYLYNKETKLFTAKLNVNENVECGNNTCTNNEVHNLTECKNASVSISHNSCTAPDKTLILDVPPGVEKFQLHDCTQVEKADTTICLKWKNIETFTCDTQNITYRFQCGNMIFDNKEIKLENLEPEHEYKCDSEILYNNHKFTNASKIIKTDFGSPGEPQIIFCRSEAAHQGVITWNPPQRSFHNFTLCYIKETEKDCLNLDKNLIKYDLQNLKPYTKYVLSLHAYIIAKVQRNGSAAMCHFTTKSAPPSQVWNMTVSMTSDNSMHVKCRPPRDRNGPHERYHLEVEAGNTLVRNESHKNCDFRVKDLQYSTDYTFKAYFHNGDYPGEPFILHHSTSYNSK
In words: MST.

As a reminder, the Kd is the free concentration of one partner at which half of the binding sites on the other are occupied at equilibrium, for simple one-to-one binding.

B1: BTN2A2-His tag protein (without Fc tag) (domain or fragment, human, UniProt Q8WVV5 33-237, looked up)
chain: QFTVVGPANPILAMVGENTTLRCHLSPEKNAEDMEVRWFRSQFSPAVFVYKGGRERTEEQMEEYRGRITFVSKDINRGSVALVIHNVTAQENGIYRCYFQEGRSYDEAILRLVVAGLGSKPLIEIKAQEDGSIWLECISGGWYPEPLTVWRDPYGEVVPALKEVSIADADGLFMVTTAVIIRDKYVRNVSCSVNNTLLGQEKETV
modifications: fluorescently labeled by covalent labeling (Monolith protein labeling kit RED-NHS 2nd generation, amine reactive)
Turning to B1, the dissociation constant (Kd) turned out to be 63.5 nM.

The values above are taken from article doi:10.1101/2024.11.12.623303 (bioRxiv, 2024).
